Test results: the supplement of paper PMC6755084

B1: minF1; the commonest letter at each place (parent)
chain: GAGACCGCAACTGAAAAGTTGTTATCAGAAATGGATGGGTTGAATTTCTGCACGTAGAAGCAAAAGGC

Variants of: B1
Experiment: fraction ligated after 30 min (ligated reads / total reads); higher = more ligase activity
Conditions: with F1*subA RNA substrate (template-directed ligation), 42 °C
In short: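 Ligated and unligated RNAs from a pool of minimized ligase ribozyme variants were separated on gels, reverse transcribed with barcoded primers and sequenced on a MiSeq. Core bases needed quality ≥30 to pass the filter. Each variant's fraction ligated was then taken as ligated reads over total reads.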
GAGACCGCAACTGAAAAGTTGTTATCAGAAATGGTTGGGTTGTATTTCTGCACGTAGAAGCAAAAGGC showed a fraction ligated of 0.00405.
Work on GAGACCGCAACTGAAAAGTTGTTATCAGAAATGGTTGGGTTGGATTTCTGCACGTAGAAGCAAAAGGC yielded a fraction ligated of 0.0022.
For GAGACCGCAACTGAAAAGTTGTTATCAGAAATGGTTGGGTTGCATTTCTGCACGTAGAAGCAAAAGGC, the fraction ligated was 0.00462.
Variant GAGACCGCAACTGAAAAGTTGTTATCAGAAATGGATAGGTTGTATTTCTGCACGTAGAAGCAAAAGGC has a fraction ligated of 0.00461.
GAGACCGCAACTGAAAAGTTGTTATCAGAAATGGATAGGTTGGATTTCTGCACGTAGAAGCAAAAGGC was tested, and the fraction ligated was 0.00388.
GAGACCGCAACTGAAAAGTTGTTATCAGAAATGGATAGGTTGCATTTCTGCACGTAGAAGCAAAAGGC gave a fraction ligated of 0.00236.
Variant GAGACCGCAACTGAAAAGTTGTTATCAGAAATGGACGGGTTTAATTTCTGCACGTAGAAGCAAAAGGC has a fraction ligated of 0.00209.
Work on GAGACCGCAACTGAAAAGTTGTTATCAGAAATGGACGGGTTAAATTTCTGCACGTAGAAGCAAAAGGC yielded a fraction ligated of 0.00494.
In the case of GAGACCGCAACTGAAAAGTTGTTATCAGAAATGGACGGGTTCAATTTCTGCACGTAGAAGCAAAAGGC, the fraction ligated is reported as 0.00306.
GAGACCGCAACTGAAAAGTTGTTATCAGAAATGGACTGGTTGAATTTCTGCACGTAGAAGCAAAAGGC was tested, and the fraction ligated was 0.00876.
For GAGACCGCAACTGAAAAGTTGTTATCAGAAATGGACAGGTTGAATTTCTGCACGTAGAAGCAAAAGGC, the fraction ligated was 0.00566.
GAGACCGCAACTGAAAAGTTGTTATCAGAAATGGACCGGTTGAATTTCTGCACGTAGAAGCAAAAGGC gave a fraction ligated of 0.0038.
With GAGACCGCAACTGAAAAGTTGTTATCAGAAATGGAGGGGTTGAATTTCTGCACGTAGAAGCAAAAGGC the fraction ligated was 0.0461.
With GAGACCGCAACTGAAAAGTTGTTATCAGAAATGGAAGGGTTGAATTTCTGCACGTAGAAGCAAAAGGC the fraction ligated was 0.0309.
In the case of GAGACCGCAACTGAAAAGTTGTTATCAGAAATGGACGGGTTGAATTTCTGCACGTAGAAGCAAAAGGC, the fraction ligated is reported as 0.0157.
With GAGACCGCAACTGAAAAGTTGTTATCAGAAATGGAGGGGTTGATTTTCTGCACGTAGAAGCAAAAGGC the fraction ligated was 0.0156.
GAGACCGCAACTGAAAAGTTGTTATCAGAAATGGAGGGGTTGAGTTTCTGCACGTAGAAGCAAAAGGC gave a fraction ligated of 0.00979.
Work on GAGACCGCAACTGAAAAGTTGTTATCAGAAATGGAGGGGTTGACTTTCTGCACGTAGAAGCAAAAGGC yielded a fraction ligated of 0.00345.
GAGACCGCAACTGAAAAGTTGTTATCAGAAATGGTAGGGTTGAATTTCTGCACGTAGAAGCAAAAGGC gave a fraction ligated of 0.0108.
GAGACCGCAACTGAAAAGTTGTTATCAGAAATGGTGGGGTTGAATTTCTGCACGTAGAAGCAAAAGGC was tested, and the fraction ligated was 0.00748.
GAGACCGCAACTGAAAAGTTGTTATCAGAAATGGTCGGGTTGAATTTCTGCACGTAGAAGCAAAAGGC showed a fraction ligated of 0.00257.
In the case of GAGACCGCAACTGAAAAGTTGTTATCAGAAATGGAATGGTTGAATTTCTGCACGTAGAAGCAAAAGGC, the fraction ligated is reported as 0.0153.
For GAGACCGCAACTGAAAAGTTGTTATCAGAAATGGAAAGGTTGAATTTCTGCACGTAGAAGCAAAAGGC, the fraction ligated was 0.00486.
Variant GAGACCGCAACTGAAAAGTTGTTATCAGAAATGGAACGGTTGAATTTCTGCACGTAGAAGCAAAAGGC has a fraction ligated of 0.00357.
GAGACCGCAACTGAAAAGTTGTTATCAGAAATGGCTGGGTTTAATTTCTGCACGTAGAAGCAAAAGGC gave a fraction ligated of 0.00281.
GAGACCGCAACTGAAAAGTTGTTATCAGAAATGGACGGGTTGAGTTTCTGCACGTAGAAGCAAAAGGC gave a fraction ligated of 0.00651.
Work on GAGACCGCAACTGAAAAGTTGTTATCAGAAATGGACGGGTTGATTTTCTGCACGTAGAAGCAAAAGGC yielded a fraction ligated of 0.0101.
Work on GAGACCGCAACTGAAAAGTTGTTATCAGAAATGGACGGGTTGACTTTCTGCACGTAGAAGCAAAAGGC yielded a fraction ligated of 0.00404.
For GAGACCGCAACTGAAAAGTTGTTATCAGAAATGGAGTGGTTGAATTTCTGCACGTAGAAGCAAAAGGC, the fraction ligated was 0.00976.
In the case of GAGACCGCAACTGAAAAGTTGTTATCAGAAATGGAGCGGTTGAATTTCTGCACGTAGAAGCAAAAGGC, the fraction ligated is reported as 0.0044.
In the case of GAGACCGCAACTGAAAAGTTGTTATCAGAAATGGAGAGGTTGAATTTCTGCACGTAGAAGCAAAAGGC, the fraction ligated is reported as 0.00776.
Variant GAGACCGCAACTGAAAAGTTGTTATCAGAAATGGGTGGGTTGTATTTCTGCACGTAGAAGCAAAAGGC has a fraction ligated of 0.0109.
In the case of GAGACCGCAACTGAAAAGTTGTTATCAGAAATGGGTGGGTTGGATTTCTGCACGTAGAAGCAAAAGGC, the fraction ligated is reported as 0.00504.
GAGACCGCAACTGAAAAGTTGTTATCAGAAATGGGTGGGTTGCATTTCTGCACGTAGAAGCAAAAGGC was tested, and the fraction ligated was 0.00434.
GAGACCGCAACTGAAAAGTTGTTATCAGAAATGGAAGGGTTCAATTTCTGCACGTAGAAGCAAAAGGC gave a fraction ligated of 0.0064.
GAGACCGCAACTGAAAAGTTGTTATCAGAAATGGAAGGGTTTAATTTCTGCACGTAGAAGCAAAAGGC showed a fraction ligated of 0.00416.
GAGACCGCAACTGAAAAGTTGTTATCAGAAATGGAAGGGTTAAATTTCTGCACGTAGAAGCAAAAGGC was tested, and the fraction ligated was 0.00342.
With GAGACCGCAACTGAAAAGTTGTTATCAGAAATGGGTGGGTTGAATTTCTGCACGTAGAAGCAAAAGGC the fraction ligated was 0.271.
Variant GAGACCGCAACTGAAAAGTTGTTATCAGAAATGGTTGGGTTGAATTTCTGCACGTAGAAGCAAAAGGC has a fraction ligated of 0.037.
For GAGACCGCAACTGAAAAGTTGTTATCAGAAATGGAAGGGTTGCATTTCTGCACGTAGAAGCAAAAGGC, the fraction ligated was 0.0049.
Variant GAGACCGCAACTGAAAAGTTGTTATCAGAAATGGAAGGGTTGGATTTCTGCACGTAGAAGCAAAAGGC has a fraction ligated of 0.00353.
GAGACCGCAACTGAAAAGTTGTTATCAGAAATGGAAGGGTTGTATTTCTGCACGTAGAAGCAAAAGGC showed a fraction ligated of 0.00522.
Work on GAGACCGCAACTGAAAAGTTGTTATCAGAAATGGGTGGGTTGAGTTTCTGCACGTAGAAGCAAAAGGC yielded a fraction ligated of 0.0773.
GAGACCGCAACTGAAAAGTTGTTATCAGAAATGGGTGGGTTGACTTTCTGCACGTAGAAGCAAAAGGC was tested, and the fraction ligated was 0.0421.
Variant GAGACCGCAACTGAAAAGTTGTTATCAGAAATGGGTGGGTTGATTTTCTGCACGTAGAAGCAAAAGGC has a fraction ligated of 0.105.
GAGACCGCAACTGAAAAGTTGTTATCAGAAATGGCCGGGTTGAATTTCTGCACGTAGAAGCAAAAGGC was tested, and the fraction ligated was 0.00473.
With GAGACCGCAACTGAAAAGTTGTTATCAGAAATGGCAGGGTTGAATTTCTGCACGTAGAAGCAAAAGGC the fraction ligated was 0.00922.
With GAGACCGCAACTGAAAAGTTGTTATCAGAAATGGCGGGGTTGAATTTCTGCACGTAGAAGCAAAAGGC the fraction ligated was 0.00841.
Variant GAGACCGCAACTGAAAAGTTGTTATCAGAAATGGGGGGGTTGAATTTCTGCACGTAGAAGCAAAAGGC has a fraction ligated of 0.00747.
With GAGACCGCAACTGAAAAGTTGTTATCAGAAATGGGAGGGTTGAATTTCTGCACGTAGAAGCAAAAGGC the fraction ligated was 0.00856.
GAGACCGCAACTGAAAAGTTGTTATCAGAAATGGGCGGGTTGAATTTCTGCACGTAGAAGCAAAAGGC showed a fraction ligated of 0.00252.
GAGACCGCAACTGAAAAGTTGTTATCAGAAATGGTTGGGTTAAATTTCTGCACGTAGAAGCAAAAGGC showed a fraction ligated of 0.00343.
In the case of GAGACCGCAACTGAAAAGTTGTTATCAGAAATGGTTGGGTTCAATTTCTGCACGTAGAAGCAAAAGGC, the fraction ligated is reported as 0.00256.
Variant GAGACCGCAACTGAAAAGTTGTTATCAGAAATGGTTGGGTTTAATTTCTGCACGTAGAAGCAAAAGGC has a fraction ligated of 0.00285.
Work on GAGACCGCAACTGAAAAGTTGTTATCAGAAATGGAGGGGTTGCATTTCTGCACGTAGAAGCAAAAGGC yielded a fraction ligated of 0.00461.
For GAGACCGCAACTGAAAAGTTGTTATCAGAAATGGAGGGGTTGTATTTCTGCACGTAGAAGCAAAAGGC, the fraction ligated was 0.00809.
For GAGACCGCAACTGAAAAGTTGTTATCAGAAATGGAGGGGTTGGATTTCTGCACGTAGAAGCAAAAGGC, the fraction ligated was 0.00457.
GAGACCGCAACTGAAAAGTTGTTATCAGAAATGGACGGGTTGTATTTCTGCACGTAGAAGCAAAAGGC gave a fraction ligated of 0.00367.
With GAGACCGCAACTGAAAAGTTGTTATCAGAAATGGACGGGTTGCATTTCTGCACGTAGAAGCAAAAGGC the fraction ligated was 0.00423.
GAGACCGCAACTGAAAAGTTGTTATCAGAAATGGACGGGTTGGATTTCTGCACGTAGAAGCAAAAGGC showed a fraction ligated of 0.00496.
GAGACCGCAACTGAAAAGTTGTTATCAGAAATGGTTTGGTTGAATTTCTGCACGTAGAAGCAAAAGGC showed a fraction ligated of 0.00238.
For GAGACCGCAACTGAAAAGTTGTTATCAGAAATGGTTAGGTTGAATTTCTGCACGTAGAAGCAAAAGGC, the fraction ligated was 0.00299.
With GAGACCGCAACTGAAAAGTTGTTATCAGAAATGGTTCGGTTGAATTTCTGCACGTAGAAGCAAAAGGC the fraction ligated was 0.00461.
Work on GAGACCGCAACTGAAAAGTTGTTATCAGAAATGGATAGGTTGAATTTCTGCACGTAGAAGCAAAAGGC yielded a fraction ligated of 0.00659.
Variant GAGACCGCAACTGAAAAGTTGTTATCAGAAATGGTTGGGTTGAGTTTCTGCACGTAGAAGCAAAAGGC has a fraction ligated of 0.0054.
GAGACCGCAACTGAAAAGTTGTTATCAGAAATGGTTGGGTTGATTTTCTGCACGTAGAAGCAAAAGGC showed a fraction ligated of 0.00912.
For GAGACCGCAACTGAAAAGTTGTTATCAGAAATGGTTGGGTTGACTTTCTGCACGTAGAAGCAAAAGGC, the fraction ligated was 0.00563.
GAGACCGCAACTGAAAAGTTGTTATCAGAAATGGAAGGGTTGACTTTCTGCACGTAGAAGCAAAAGGC showed a fraction ligated of 0.00684.
In the case of GAGACCGCAACTGAAAAGTTGTTATCAGAAATGGAAGGGTTGATTTTCTGCACGTAGAAGCAAAAGGC, the fraction ligated is reported as 0.012.
In the case of GAGACCGCAACTGAAAAGTTGTTATCAGAAATGGAAGGGTTGAGTTTCTGCACGTAGAAGCAAAAGGC, the fraction ligated is reported as 0.00875.
In the case of GAGACCGCAACTGAAAAGTTGTTATCAGAAATGGGTAGGTTGAATTTCTGCACGTAGAAGCAAAAGGC, the fraction ligated is reported as 0.00295.
GAGACCGCAACTGAAAAGTTGTTATCAGAAATGGGTTGGTTGAATTTCTGCACGTAGAAGCAAAAGGC gave a fraction ligated of 0.00458.
Variant GAGACCGCAACTGAAAAGTTGTTATCAGAAATGGGTCGGTTGAATTTCTGCACGTAGAAGCAAAAGGC has a fraction ligated of 0.0017.
GAGACCGCAACTGAAAAGTTGTTATCAGAAATGGAGGGGTTCAATTTCTGCACGTAGAAGCAAAAGGC showed a fraction ligated of 0.00216.
In the case of GAGACCGCAACTGAAAAGTTGTTATCAGAAATGGAGGGGTTTAATTTCTGCACGTAGAAGCAAAAGGC, the fraction ligated is reported as 0.000662.
GAGACCGCAACTGAAAAGTTGTTATCAGAAATGGAGGGGTTAAATTTCTGCACGTAGAAGCAAAAGGC showed a fraction ligated of 0.00463.
Work on GAGACCGCAACTGAAAAGTTGTTATCAGAAATGGGTGGGTTTAATTTCTGCACGTAGAAGCAAAAGGC yielded a fraction ligated of 0.00567.
GAGACCGCAACTGAAAAGTTGTTATCAGAAATGGGTGGGTTCAATTTCTGCACGTAGAAGCAAAAGGC showed a fraction ligated of 0.00281.
GAGACCGCAACTGAAAAGTTGTTATCAGAAATGGGTGGGTTAAATTTCTGCACGTAGAAGCAAAAGGC showed a fraction ligated of 0.0121.
